Measured values reported in the supplement of paper PMC9112550, “Optimization of the antimicrobial peptide Bac7 by deep mutational scanning” (BMC Biology, 2022).

System: Escherichia coli TOP10
Test: shrunken log2 fold change of peptide-encoding DNA abundance (4.5 h post-induction vs induction); higher = less antimicrobial activity (less host growth inhibition)
Conditions: time post-induction: 4.5 h; library: site-saturation at positions 5, 18, 19, 20
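Also: peptides expressed intracellularly from a pBAD plasmid library in pooled LB shake-flask culture, induced with 0.3% L-arabinose, DNA abundance read by NGS, three biological replicates, DESeq2 with apeglm shrinkage.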

Sequence	shrunken log2 fold change
RRIRWRPPRLPRPRPRPPGPPRP	0.599
RRIRERPPRLPRPRPRPTVKPRP	-0.218
RRIRKRPPRLPRPRPRPGLWPRP	0.66
RRIRVRPPRLPRPRPRPTSEPRP	0.066
RRIRGRPPRLPRPRPRPVSFPRP	0.392
RRIRTRPPRLPRPRPRPAKHPRP	0.0349
RRIRTRPPRLPRPRPRPCCWPRP	0.0822
RRIRTRPPRLPRPRPRPLDGPRP	0.0872
RRIRGRPPRLPRPRPRPIYNPRP	-0.185
RRIRMRPPRLPRPRPRPDYHPRP	-0.457
RRIRVRPPRLPRPRPRPVGTPRP	-0.0358
RRIRFRPPRLPRPRPRPWYYPRP	-0.735
RRIRDRPPRLPRPRPRPNVMPRP	-0.323
RRIRIRPPRLPRPRPRPVWSPRP	0.0432
RRIRERPPRLPRPRPRPFWPPRP	0.0458
RRIRLRPPRLPRPRPRPCPGPRP	-0.219
RRIRMRPPRLPRPRPRPHMWPRP	0.108
RRIRERPPRLPRPRPRPQKHPRP	-0.608
RRIRNRPPRLPRPRPRPITSPRP	-0.282
RRIRERPPRLPRPRPRPRGCPRP	0.286
RRIRPRPPRLPRPRPRPIIAPRP	-0.681
RRIRMRPPRLPRPRPRPRRDPRP	0.651
RRIRTRPPRLPRPRPRPRGWPRP	0.897
RRIRVRPPRLPRPRPRPTICPRP	-0.604
RRIRWRPPRLPRPRPRPSELPRP	0.0129

Sequence	shrunken log2 fold change
RRIRNRPPRLPRPRPRPTIIPRP	-0.905
RRIRKRPPRLPRPRPRPVIAPRP	0.437
RRIRCRPPRLPRPRPRPWSYPRP	-0.441
RRIRVRPPRLPRPRPRPINYPRP	-0.348
RRIRTRPPRLPRPRPRPTWMPRP	-0.0339
RRIRDRPPRLPRPRPRPDLQPRP	1.54
RRIRIRPPRLPRPRPRPNRSPRP	0.00656
RRIRWRPPRLPRPRPRPRIKPRP	0.0187
RRIRRRPPRLPRPRPRPDHVPRP	0.101
RRIRTRPPRLPRPRPRPEMKPRP	0.258
RRIRRRPPRLPRPRPRPPATPRP	0.958
RRIRRRPPRLPRPRPRPHENPRP	-0.019
RRIRYRPPRLPRPRPRPRCQPRP	-0.259
RRIRDRPPRLPRPRPRPNNWPRP	-0.11
RRIRKRPPRLPRPRPRPVGFPRP	0.485
RRIRFRPPRLPRPRPRPPKWPRP	0.286
RRIRPRPPRLPRPRPRPDPKPRP	0.367
RRIRARPPRLPRPRPRPYCKPRP	-0.376
RRIRQRPPRLPRPRPRPLATPRP	0.0953
RRIRNRPPRLPRPRPRPIYVPRP	-0.892
RRIRMRPPRLPRPRPRPLLFPRP	0.908
RRIRNRPPRLPRPRPRPNCMPRP	-0.0251
RRIRIRPPRLPRPRPRPFNMPRP	-2.55
RRIRDRPPRLPRPRPRPKCTPRP	0.0239
RRIRVRPPRLPRPRPRPMALPRP	-0.169

Sequence	shrunken log2 fold change
RRIRVRPPRLPRPRPRPIMSPRP	-0.0851
RRIRCRPPRLPRPRPRPNTAPRP	-0.22
RRIRTRPPRLPRPRPRPQRDPRP	0.347
RRIRCRPPRLPRPRPRPCIQPRP	0.0591
RRIRTRPPRLPRPRPRPPDEPRP	0.0184
RRIRARPPRLPRPRPRPNTLPRP	-0.202
RRIRERPPRLPRPRPRPHSEPRP	-0.148
RRIRSRPPRLPRPRPRPHGWPRP	-0.107
RRIRYRPPRLPRPRPRPIMCPRP	-0.197
RRIRYRPPRLPRPRPRPHMVPRP	-0.126
RRIRNRPPRLPRPRPRPMYIPRP	-1.03
RRIRNRPPRLPRPRPRPECSPRP	0.079
RRIRFRPPRLPRPRPRPIRDPRP	0.0144
RRIRWRPPRLPRPRPRPMQSPRP	0.185
RRIRPRPPRLPRPRPRPVGYPRP	0.394
RRIRARPPRLPRPRPRPFIFPRP	0.419
RRIRCRPPRLPRPRPRPSEQPRP	-0.0681
RRIRNRPPRLPRPRPRPPMRPRP	1.05
RRIRWRPPRLPRPRPRPEECPRP	0.158
RRIRCRPPRLPRPRPRPYGGPRP	-0.136
RRIRSRPPRLPRPRPRPSKPPRP	-0.432
RRIRWRPPRLPRPRPRPPFDPRP	0.445
RRIRVRPPRLPRPRPRPSYRPRP	-0.775
RRIRFRPPRLPRPRPRPDGTPRP	-0.256
RRIRDRPPRLPRPRPRPVDMPRP	0.0154

Sequence	shrunken log2 fold change
RRIRHRPPRLPRPRPRPYWAPRP	-0.186
RRIRARPPRLPRPRPRPMPTPRP	0.866
RRIRMRPPRLPRPRPRPSCFPRP	-0.145
RRIRWRPPRLPRPRPRPERNPRP	-0.117
RRIRNRPPRLPRPRPRPHIVPRP	-0.249
RRIRYRPPRLPRPRPRPYEMPRP	-0.104
RRIRSRPPRLPRPRPRPPDDPRP	0.488
RRIRYRPPRLPRPRPRPGQPPRP	0.0516
RRIRTRPPRLPRPRPRPGMTPRP	-0.2
RRIRHRPPRLPRPRPRPREIPRP	0.0735
RRIRTRPPRLPRPRPRPMYMPRP	-0.0921
RRIRDRPPRLPRPRPRPPQSPRP	0.613
RRIRCRPPRLPRPRPRPDAPPRP	0.515
RRIRCRPPRLPRPRPRPISPPRP	0.153
RRIRTRPPRLPRPRPRPSANPRP	-0.0622
RRIRPRPPRLPRPRPRPNPQPRP	-0.0414
RRIRHRPPRLPRPRPRPAALPRP	-0.0796
RRIRVRPPRLPRPRPRPDLVPRP	0.211
RRIRYRPPRLPRPRPRPAMDPRP	-0.256
RRIRMRPPRLPRPRPRPENTPRP	0.427
RRIRWRPPRLPRPRPRPPVLPRP	0.433
RRIRSRPPRLPRPRPRPHADPRP	0.121
RRIRSRPPRLPRPRPRPWHTPRP	-0.348
RRIRYRPPRLPRPRPRPTAFPRP	0.0438
RRIRTRPPRLPRPRPRPNMSPRP	-0.562

Sequence	shrunken log2 fold change
RRIRGRPPRLPRPRPRPTLEPRP	1.22
RRIRTRPPRLPRPRPRPKYCPRP	-0.0743
RRIRTRPPRLPRPRPRPKKEPRP	-0.0512
RRIRLRPPRLPRPRPRPDQRPRP	0.274
RRIRVRPPRLPRPRPRPSYLPRP	0.753
RRIRIRPPRLPRPRPRPGQKPRP	-0.0432
RRIRERPPRLPRPRPRPPRRPRP	0.408
RRIRIRPPRLPRPRPRPYTLPRP	-0.478
RRIRGRPPRLPRPRPRPKCPPRP	0.625
RRIRWRPPRLPRPRPRPLQVPRP	-0.125
RRIRCRPPRLPRPRPRPVHYPRP	-0.0961
RRIRMRPPRLPRPRPRPSSPPRP	0.16
RRIRARPPRLPRPRPRPGNKPRP	-0.186
RRIRMRPPRLPRPRPRPHMRPRP	0.509
RRIRSRPPRLPRPRPRPKNCPRP	-0.149
RRIRIRPPRLPRPRPRPPRPPRP	0.822
RRIRSRPPRLPRPRPRPMVGPRP	0.158
RRIRGRPPRLPRPRPRPGRCPRP	1.09
RRIRLRPPRLPRPRPRPVDNPRP	-0.491
RRIRIRPPRLPRPRPRPMTTPRP	0.0113
RRIRQRPPRLPRPRPRPVFFPRP	0.0102
RRIRKRPPRLPRPRPRPDSWPRP	0.0425
RRIRWRPPRLPRPRPRPPPHPRP	0.721
RRIRQRPPRLPRPRPRPICDPRP	-0.0181
RRIRVRPPRLPRPRPRPPQPPRP	1.38

Sequence	shrunken log2 fold change
RRIRCRPPRLPRPRPRPMLGPRP	-0.0961
RRIRDRPPRLPRPRPRPYYDPRP	-0.621
RRIRLRPPRLPRPRPRPSPLPRP	-0.192
RRIRLRPPRLPRPRPRPPQTPRP	0.0847
RRIRVRPPRLPRPRPRPASAPRP	0.309
RRIRSRPPRLPRPRPRPCRCPRP	-0.358
RRIRARPPRLPRPRPRPWNFPRP	-0.123
RRIRNRPPRLPRPRPRPPTRPRP	0.29
RRIRARPPRLPRPRPRPKASPRP	0.256
RRIRPRPPRLPRPRPRPCNDPRP	-0.456
RRIRKRPPRLPRPRPRPAGMPRP	0.042
RRIRFRPPRLPRPRPRPGCKPRP	-0.222
RRIRSRPPRLPRPRPRPRMGPRP	0.234
RRIRKRPPRLPRPRPRPVRMPRP	0.0401
RRIRNRPPRLPRPRPRPISCPRP	-0.205
RRIRDRPPRLPRPRPRPLYFPRP	-0.601
RRIRKRPPRLPRPRPRPNWKPRP	0.363
RRIRTRPPRLPRPRPRPNHKPRP	-0.443
RRIRHRPPRLPRPRPRPFWCPRP	-0.3
RRIRSRPPRLPRPRPRPMRAPRP	0.706
RRIRIRPPRLPRPRPRPHGNPRP	0.142
RRIRGRPPRLPRPRPRPCYWPRP	0.553
RRIRARPPRLPRPRPRPTSRPRP	0.119
RRIRNRPPRLPRPRPRPLTAPRP	-0.221
RRIRDRPPRLPRPRPRPHFEPRP	0.163
